Laboratory results: US8440629B2
Blank lines part the entries; values can stand above or below the substance they belong to.

Key:
VLDLR CR78 (human) = VLDLR CR78 (human) (UniProt P98155); assay: solid-phase binding assay, immobilised CR protein, anti-RAP detection
LRP6 CR1-3 (human) = LRP6 CR1-3 (human) (UniProt O75581); assay: as above
VLDLR CR6-8 (human) = VLDLR CR6-8 (human) (UniProt P98155); assay: as above
LRP6 CR23 (human) = LRP6 CR23 (human) (UniProt O75581); assay: as above
LRP6 CR12 (human) = LRP6 CR12 (human) (UniProt O75581); assay: as above
[1] = target: full-length LRP1 expressed on CHO-K1 cells
[2] = target: recombinant mouse VLDLR ectodomain (mouse) (UniProt P98156); assay: solid-phase binding assay, immobilised receptor, streptavidin-HRP detection, EDTA-corrected

binding as percent of that for LRP1 CR3-5 (VLDLR CR78 (human)): < 5% | binding as percent of that for LRP1 CR3-5 (LRP6 CR1-3 (human)): < 5% | Kd (VLDLR CR6-8 (human)): > 300 nM | binding as percent of that for LRP1 CR3-5 (LRP6 CR23 (human)): < 5% | binding as percent of that for LRP1 CR3-5 (LRP6 CR12 (human)): < 5%
Substance: RAP d3 (ligand)

Substance: mRAPc combined with streptavidin-saporin conjugate
viable cell number (MTT assay, 48 hours) [1]: 40%

Kd [2]: 1 nM
Substance: tag-free RAP d3 peptide linked to maleimide-PEO2-biotin (ligand)
